Abundance fitness data for 38 variants are collected here from the Human Domainome abundance scans (Beltran et al. 2025).

± gives the uncertainty stated by the source.

B1: Far upstream element-binding protein 2, residues 142 to 214; numbered along this chain, Q92945 (parent)
chain: RTSMTEEYRVPDGMVGLIIGRGGEQINKIQQDSGCKVQISPDSGGLPERSVSLTGAPESVQKAKMMLDDIVSR

The data set covers variants of B1. Put plainly: abundance fitness (aPCA) (normalised: wild type 0, dead -1); higher = more abundant; growth selection in yeast, the domain comes from the species named. The settings on record: Homo sapiens.
Regarding RTSMTEEYRVPDGMVGLIIGRGGEQINKIQQDSGCKVRISPDSGGLPERSVSLTGAPESVQKAKMMLDDIVSR [Q38R], the abundance fitness is -0.028 ± 0.039.

Consider RTSMTEEYRVPDGMVGLIIGRGGEQINKIQQDSGCKVFISPDSGGLPERSVSLTGAPESVQKAKMMLDDIVSR [Q38F], for which the abundance fitness was -0.075 ± 0.12. As for RTSMTEEYRVPDGMVGLIIGRGGEQINKIQQDSGCKVTISPDSGGLPERSVSLTGAPESVQKAKMMLDDIVSR [Q38T], the figure is 0.033 ± 0.053.

Take RTSMTEEYRVPDGMVGLIIGRGGEQINKIQQDSGCKVIISPDSGGLPERSVSLTGAPESVQKAKMMLDDIVSR [Q38I]: the abundance fitness is -0.038 ± 0.11. The figure for RTSMTEEYRVPDGMVGLIIGRGGEQINKIQQDSGCKVGISPDSGGLPERSVSLTGAPESVQKAKMMLDDIVSR [Q38G] is -0.172 ± 0.042; for RTSMTEEYRVPDGMVGLIIGRGGEQINKIQQDSGCKVMISPDSGGLPERSVSLTGAPESVQKAKMMLDDIVSR [Q38M] it is 0.007 ± 0.069; for RTSMTEEYRVPDGMVGLIIGRGGEQINKIQQDSGCKVQESPDSGGLPERSVSLTGAPESVQKAKMMLDDIVSR [I39E] it is -0.728 ± 0.076. Take RTSMTEEYRVPDGMVGLIIGRGGEQINKIQQDSGCKVQWSPDSGGLPERSVSLTGAPESVQKAKMMLDDIVSR [I39W]: the abundance fitness is -0.304 ± 0.055. For RTSMTEEYRVPDGMVGLIIGRGGEQINKIQQDSGCKVQRSPDSGGLPERSVSLTGAPESVQKAKMMLDDIVSR [I39R], the abundance fitness was -0.645 ± 0.044. The figure for RTSMTEEYRVPDGMVGLIIGRGGEQINKIQQDSGCKVQSSPDSGGLPERSVSLTGAPESVQKAKMMLDDIVSR [I39S] is -0.572 ± 0.053. As to RTSMTEEYRVPDGMVGLIIGRGGEQINKIQQDSGCKVQVSPDSGGLPERSVSLTGAPESVQKAKMMLDDIVSR [I39V], the abundance fitness was -0.045 ± 0.046. The figure for RTSMTEEYRVPDGMVGLIIGRGGEQINKIQQDSGCKVQASPDSGGLPERSVSLTGAPESVQKAKMMLDDIVSR [I39A] is -0.457 ± 0.05. The figure for RTSMTEEYRVPDGMVGLIIGRGGEQINKIQQDSGCKVQNSPDSGGLPERSVSLTGAPESVQKAKMMLDDIVSR [I39N] is -0.578 ± 0.11. Regarding RTSMTEEYRVPDGMVGLIIGRGGEQINKIQQDSGCKVQKSPDSGGLPERSVSLTGAPESVQKAKMMLDDIVSR [I39K], the abundance fitness is -0.701 ± 0.087. RTSMTEEYRVPDGMVGLIIGRGGEQINKIQQDSGCKVQCSPDSGGLPERSVSLTGAPESVQKAKMMLDDIVSR [I39C]: the abundance fitness was -0.172 ± 0.075. The figure for RTSMTEEYRVPDGMVGLIIGRGGEQINKIQQDSGCKVQLSPDSGGLPERSVSLTGAPESVQKAKMMLDDIVSR [I39L] is -0.091 ± 0.043.

For RTSMTEEYRVPDGMVGLIIGRGGEQINKIQQDSGCKVQFSPDSGGLPERSVSLTGAPESVQKAKMMLDDIVSR [I39F], the abundance fitness was -0.177 ± 0.09. As for RTSMTEEYRVPDGMVGLIIGRGGEQINKIQQDSGCKVQDSPDSGGLPERSVSLTGAPESVQKAKMMLDDIVSR [I39D], the figure is -0.515 ± 0.09; as for RTSMTEEYRVPDGMVGLIIGRGGEQINKIQQDSGCKVQPSPDSGGLPERSVSLTGAPESVQKAKMMLDDIVSR [I39P], -0.477 ± 0.052; as for RTSMTEEYRVPDGMVGLIIGRGGEQINKIQQDSGCKVQGSPDSGGLPERSVSLTGAPESVQKAKMMLDDIVSR [I39G], -0.648 ± 0.047. As for RTSMTEEYRVPDGMVGLIIGRGGEQINKIQQDSGCKVQQSPDSGGLPERSVSLTGAPESVQKAKMMLDDIVSR [I39Q], the abundance fitness was -0.543 ± 0.064.

As for RTSMTEEYRVPDGMVGLIIGRGGEQINKIQQDSGCKVQYSPDSGGLPERSVSLTGAPESVQKAKMMLDDIVSR [I39Y], the abundance fitness is -0.386 ± 0.085. The figure for RTSMTEEYRVPDGMVGLIIGRGGEQINKIQQDSGCKVQISTDSGGLPERSVSLTGAPESVQKAKMMLDDIVSR [P41T] is -0.05 ± 0.056; for RTSMTEEYRVPDGMVGLIIGRGGEQINKIQQDSGCKVQISNDSGGLPERSVSLTGAPESVQKAKMMLDDIVSR [P41N] it is -0.141 ± 0.083; for RTSMTEEYRVPDGMVGLIIGRGGEQINKIQQDSGCKVQISYDSGGLPERSVSLTGAPESVQKAKMMLDDIVSR [P41Y] it is -0.099 ± 0.092. As for RTSMTEEYRVPDGMVGLIIGRGGEQINKIQQDSGCKVQISIDSGGLPERSVSLTGAPESVQKAKMMLDDIVSR [P41I], the figure is -0.024 ± 0.094; as for RTSMTEEYRVPDGMVGLIIGRGGEQINKIQQDSGCKVQISSDSGGLPERSVSLTGAPESVQKAKMMLDDIVSR [P41S], -0.017 ± 0.049; as for RTSMTEEYRVPDGMVGLIIGRGGEQINKIQQDSGCKVQISMDSGGLPERSVSLTGAPESVQKAKMMLDDIVSR [P41M], -0.09 ± 0.067.

For the variant RTSMTEEYRVPDGMVGLIIGRGGEQINKIQQDSGCKVQISDDSGGLPERSVSLTGAPESVQKAKMMLDDIVSR [P41D], the abundance fitness was found to be 0.032 ± 0.087. As for RTSMTEEYRVPDGMVGLIIGRGGEQINKIQQDSGCKVQISWDSGGLPERSVSLTGAPESVQKAKMMLDDIVSR [P41W], the figure is -0.299 ± 0.06.

Regarding RTSMTEEYRVPDGMVGLIIGRGGEQINKIQQDSGCKVQISEDSGGLPERSVSLTGAPESVQKAKMMLDDIVSR [P41E], the abundance fitness is -0.04 ± 0.055.

Turning to RTSMTEEYRVPDGMVGLIIGRGGEQINKIQQDSGCKVQISGDSGGLPERSVSLTGAPESVQKAKMMLDDIVSR [P41G], the abundance fitness was -0.055 ± 0.044. Turning to RTSMTEEYRVPDGMVGLIIGRGGEQINKIQQDSGCKVQISHDSGGLPERSVSLTGAPESVQKAKMMLDDIVSR [P41H], the abundance fitness was 0.035 ± 0.091. As for RTSMTEEYRVPDGMVGLIIGRGGEQINKIQQDSGCKVQISCDSGGLPERSVSLTGAPESVQKAKMMLDDIVSR [P41C], the figure is -0.017 ± 0.084; as for RTSMTEEYRVPDGMVGLIIGRGGEQINKIQQDSGCKVQISADSGGLPERSVSLTGAPESVQKAKMMLDDIVSR [P41A], 0.007 ± 0.047; as for RTSMTEEYRVPDGMVGLIIGRGGEQINKIQQDSGCKVQISFDSGGLPERSVSLTGAPESVQKAKMMLDDIVSR [P41F], -0.122 ± 0.095. As for RTSMTEEYRVPDGMVGLIIGRGGEQINKIQQDSGCKVQISRDSGGLPERSVSLTGAPESVQKAKMMLDDIVSR [P41R], the figure is -0.061 ± 0.043.

RTSMTEEYRVPDGMVGLIIGRGGEQINKIQQDSGCKVQISLDSGGLPERSVSLTGAPESVQKAKMMLDDIVSR [P41L]: the abundance fitness was -0.172 ± 0.048.
